Assay results taken from article PMC5841405.

Key:
MBP-LIC1FL (human) = assay: ITC; protein or peptide in the syringe titrated into the protein in the cell; 20 mM HEPES pH 7.5, 100 mM NaCl, 0.25 mM TCEP; temperature listed in the figures (20 °C for most titrations)
MBP-LIC1_(1–461) (human) = assay: as above
LIC1_(433–458) (human) = assay: as above
Hook1_(11–443) (human) = Hook1_(11–443) (human) (UniProt Q9UJC3); assay: ITC; MBP-LIC1FL in the syringe, Hook1_(11–443) in the cell; 30 °C; 20 mM HEPES pH 7.5, 100 mM NaCl, 0.25 mM TCEP
Hook1_(11–443) (human), sequence (Q9UJC3 11-443): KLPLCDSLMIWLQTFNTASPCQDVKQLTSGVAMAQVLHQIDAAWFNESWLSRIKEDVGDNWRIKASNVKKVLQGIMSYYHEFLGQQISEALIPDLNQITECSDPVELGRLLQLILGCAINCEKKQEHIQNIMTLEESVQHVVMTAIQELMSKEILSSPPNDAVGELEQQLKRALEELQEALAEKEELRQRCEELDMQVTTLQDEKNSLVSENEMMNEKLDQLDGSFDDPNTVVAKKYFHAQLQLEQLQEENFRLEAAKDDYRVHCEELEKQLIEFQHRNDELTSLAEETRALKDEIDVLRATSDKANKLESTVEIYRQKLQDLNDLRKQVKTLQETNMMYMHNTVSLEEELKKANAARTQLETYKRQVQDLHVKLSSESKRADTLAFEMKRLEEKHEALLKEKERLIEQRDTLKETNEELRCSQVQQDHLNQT

Hook1_(11–166), sequence (Q9UJC3 11-166): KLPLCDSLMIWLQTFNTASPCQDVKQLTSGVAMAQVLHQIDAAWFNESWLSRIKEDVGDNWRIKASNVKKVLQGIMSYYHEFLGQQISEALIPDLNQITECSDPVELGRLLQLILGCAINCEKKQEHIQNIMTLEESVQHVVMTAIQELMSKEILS

Substance | Kd (MBP-LIC1FL (human)) [µM] | stoichiometry N (MBP-LIC1FL (human)) | Kd (MBP-LIC1_(1–461) (human)) [µM] | Kd (LIC1_(433–458) (human)) [µM] | Kd (Hook1_(11–443) (human)) [µM] | stoichiometry N (Hook1_(11–443) (human))
Hook1_(1–239)GCN4 (from UniProt Q9UJC3-1 1-239) | 12.9 | 1 |  |  |  | 
Hook1_(11–166) (from UniProt Q9UJC3-1 11-166) (domain or fragment) | 12.7 | 1 | 10.1 | 15.7 |  | 
MBP-LIC1FL (natural protein) |  |  |  |  | 8.1 | 1
